# Test results reported in the DeepSol protein solubility set.
# Test: soluble on expression in E. coli; label from the status in PepcDB or PDB records
row,Sequence,soluble on expression in E. coli
1,MGSDKIHHHHHHMIIKNAKIYGDSLQDIEIKEGKITNIDSNLQGEEILDAKGMTLLPSFVDLCVSLKNDKFSLANLELLENECLKGGISSIVLRDCMDFDEESFALFLQNLAQRKMQIFSSVRVKDANGKLKNLATLLNKGACALELDSSLDANTLKVSSQYAFMKDSPIFVRCYDKDFDDNGVMNDCEMSFELGLIGMSKIAETSQIAKMKELAKFYKNKVIFDLLSLKDSLVLLDEKDLKLVSIHHLIKDDSACEDFNTAAKLMPPLRSKEDVLALREVLKEGKISFLTSLHSAKSISLKDLAFDEAAFGIHSVCEFISLCYTFLIKEGFLNWQELCRFTSKNPSEFLGLNSGVIEVGKEANLVLFDENEEIFAPKSSLYSEDKLFGKIKMHIIKGKNILEK,not soluble
2,MGSDKIHHHHHHMIIMIPFKSMRDQAGLNRQHIFDLARLPPDLLAPLDLGQHERQLILLGHAGRLLWERVQKHATDPVHPIDSYTIGVVEQWAALALPHTRIRFVYPRGLPANRHVGLQRLGTLAGWHHPSPFMVGIDARWGSWFAYRAAIIVDSELPASPVEDHGHPCVDCTAKPCIGTCPASALDSGTMDMNACTASGSLKPRPARTAAWRDRPAL,not soluble
3,MGSDKIHHHHHHMIIMTYYTFVKPFFIKAVTHLHVSSGTSVEEEVDLPFQRDELNYPTIFASSLKGAIKSFLLKEYSNAREIIYKVLGSDENPDEASLGSFLDAVLFAIPARSIGVSGLDEAWVYVTTYELLRKVKSLLESMNTLSATQFTSLLDAINNILQESKNLIISDNAASVILNEDFYVELSNIQNEYIQSLLGDMLIENSTYNQSNQNSQSQGNHLVKPLIVLKDSIGREVINRSLIRVRRIKIKRSSKTVEEGGLWSEEYVPVNSLFFSSFLARGSKDTAYFADCILRKTRYLILGGKETIGKGIVELRWLND,not soluble
4,MGSDKIHHHHHHMIINKHVMRSTNEKQVLQQVINEGPISRSQISRNLSLNKVTVSDIYNQLLRTQFIKEIGCGVSTKNGGRKPVMAELNVNYGFVASIDMTADAVKLMYSRLNGKILHFQSFKTSDMTLTDVIDLIEDQLRNVDDYGTIHGLMGVAIALDGIIYENKILKTPIKGLTHFDLAKYLRDKLRIPVVLEKKANLTAVFERDFHDNEIFDNVVSVVVRDQIHAGIVADSRLYSGHEGEAGEVGTALLEDRHVEDHLASVNDYASEKALWARLKAIKHVERLDLTTVKHDYINHDPEVTKVFDDFVYYLSKVIANVSTAFAPDVVVLNTTVLEILPQLLTNVRESTAKLTSPSRQVPIIATKNVQSAALLGGASVIIHQALGLESLKMQFS,not soluble
5,MGSDKIHHHHHHMIIRKICTTLPVILPEPETIMTVTRPRAERGAFPPGTEHYGRSLLGAPLIWFPAPAASRESGLILAGTHGDENSSVVTLSCALRTLTPSLRRHHVVLCVNPDGCQLGLRANANGVDLNRNFPAANWKEGETVYRWNSAAEERDVVLLTGDKPGSEPETQALCQLIHRIQPAWVVSFHDPLACIEDPRHSELGEWLAQAFELPLVTSVGYETPGSFGSWCADLNLHCITAEFPPISSDEASEKYLFAMANLLRWHPKDAIRPS,not soluble
6,MGSDKIHHHHHHMIIVAGTPGAGKTSVMTHTIKQLLNKGNKPAVVKIDCLYTDDDTRYGKLKIPTLVGLSKDMCPDHFAIYNLEEMAEWAEKEGVDTLIIETAGLCHRCAPYTKNSLGICVIDATSGPNTPRKVGPFLTSADVVAITKGDIISQAEREVFRERVLEMNPKCTIYDVNGLSGQGCAEISEEIMEAKDIVDLENEELRHNAPLCVCTLCVGETKVAKKHHRGVLRRIDGFTKYVGE,not soluble
7,MGSDKIHHHHHHMIKGIGTNVDTRRVNGSIKRLVSELEFFKSIGFDYVEIPAAGLDVIARGRIIRKRLERVKELLSNYNFRYTVHAPDVINLKIKTNPWHYRVMEATIEFAGEINAEVVVYHYGEVDHSIDVPERVQRKAEIVALRELADLAKEKGVVIGVENVGHPVSEVLKLVRAVNHPNVKLVIDVGHLFIVSNYTGIDFYDELKKGLPYAVELHLSDNFGESPQTYQKIPDVEAFRFVYGIGDLHLPIGEGDIPYNKVFRIIRESGFDGIVILEINSMDRFADEYADSLNLLRKRLILAADNNKTKKRRKVK,not soluble
8,MGSDKIHHHHHHMIKVAVVGTVGIPACYGGFESLVENLTSYTSNKIEYDVFCSSKSYTNKRSHYNGAQLSYIPLNANGVQSIFYDIISLIFCIFKKPDVTLVLGVSGCLFLPVYRLLSKSKIVTNIDGLEWKRDKWSKWAKKFLKFSEYMAVKFSDVVITDNKAIGDYVNAEYSKDNVVIAYGGDHAIIEGKHVGPEQDYYLSLCRIEPENNVQMILNAFSKSQHKLKFVGNWNSSEFGRKLKREFSDQPNIDIVDPIYDVNQLFKLRSECKGYVHGHSAGGTNPSLVEAMHFEKTIFAFDCNFNRYTTEDKAVYFSSSKELNDKLTEVTKDELAVISTDMKQIADRRYTWKVINHMYEETYL,not soluble
9,MGSDKIHHHHHHMIKVLHLFTTLDSGGVESFLFNYYSHIDRKKIQFDFIVPGKEQGFLEDKMKELGAKVYHVPLLRKKPLHQFLSLARIIKKGDYDIVHCHGYKSAIGLILSKIIGCKIRIIHSHMAYVTENSFQKVLRKLVTILVKILATHWFACGEDSAKWLYGEKAYKDGKIEIIFNAIDLKKYQFLSDVREKCRRELDVSNKFVLGNIARLSDQKNQSYLFNVLKELILIKPNVILLLVGNGEDEQKLKQKALELNLTPYVLFLGRRTDISDLLSAMDVFLLPSKYEGLPVSLVEAQASGLQILSSDTVTQEVDVTKNISYLPINEESVLLWKDKVLSLTSEECNRFEINNSMTDGLYDICYQASKLLNRYQEMCVIKEI,not soluble
10,MGSDKIHHHHHHMILGEIMEVLAFKNQSLIDHVNDMVKYWERIKYRYLKTIKRALEALNIKLDIEKVDEFMKILIKLHDIGKASKIYQRAIINDQEKLMGFRHELVSAYYTYHILLKKFGDKNLAFIGALTVMLHHEPIIMGQIRNLKKKELTAEVVLDKLKKFDGMIEDFEDLIKKLIGYSIGDIIKNDSNKDDIIRFVIEMSVRARHTPNSEKLRFIVGTLLLPLVMCDYKGAESREGKAPKFAEVLEVESYVI,not soluble
11,MGSDKIHHHHHHMILMRISIKGLGISGLYLYERLKQSGFDVTAFDVRRRDFYIPCAYATNFNLMKPFMSRIGIDFDNYVLFRSETITMSGENGSEIEFPSAGLVTFDRNGLQRDMMNRIEMETETKADLVVDATGISRSYLGRINGDLTYYTKEYLTDHVIHRDFYFLFLNRGVGYLWEFPLDRGHFHVGIGSIRRDDLNRIDRYNRIRITGRRIRMKPLFEVASIGNIVGIGESVGTVSPLTGEGILPSIESAELLYQAISDKSDPNEAIRLYLKKLNTSFSHYYKLSDFVRKVQTGKLLRPSNIRYASLITKDMKHFGIDFSLGKAVRALIQ,not soluble
12,MGSDKIHHHHHHMILSHFSTKVVTFFGSRFKAVRGVDLKRYRKELKLKQQELASKLGIERSLISKIESGKRVISKELEQKIINVLNLDGGHASVEAKIDFLRIRFKTLDVRTVIEKLLHMDMNWFTHESRGFYHYTETFSYSSIRIFRNPENVNMGIMLDLSGEGCRQLEEIFEEDNNRSWTEFFRSLYDDDIFGQGILVDTKITRIDIALDELIVKGQENFDLYVLKEKMEQGLVDTTFKNFDFSGGFVYENKKMVNKGLSLYFGSRQSPLYFNFYQKDYELARKESMSVEEAREKHEIKNRYEIRLSDEKAFLFVEYFLSSGESLDWLVKEIINQSLTVYDIEDDMKVYCKSWHDVVDKLEGLKLSVQGEKPSIEKTLRWLSNYLAPSLKMIKEIDNLLGTNELMERIDLAELKEKHEEIIEMVSVDAKDLLFTNRDNKSVRSYMEREFELEEMYPF,not soluble
13,MGSDKIHHHHHHMINQVYQLVAPRQFDVTYNNVDIYGNHVIVRPLYLSICAADQRYYTGRRDENVLRKKLPMSLVHEAVGEVVFDSKGVFEKGTKVVMVPNTPTEQHHIIAENYLASSYFRSSGYDGFMQDYVVMAHDRIVPLPNDIDLSTISYTELVSVSYHAIQRFERKSIPLKNSFGIWGDGNLGYITAILLRKLYPEAKIYVFGKTDYKLSHFSFVDDIFTVNQIPDDLKIDHAFECVGGKGSQVALQQIVEHISPEGSIALLGVSELPVEVNTRLVLEKGLTLIGSSRSGSKDFEQVVDLYRKYPDIVEKLALLKGHEINVCTMQDIVQAFEMDLSTSWGKTVLKWTI,not soluble
14,MGSDKIHHHHHHMINRSLGISCGLVIVLAGCSETTTKDSSKTVPKTSETVKSDIIFKNLRTPWNIEKNQEVFYITEREGTIVKGTEGNYSRTDLELTEPVVAQGEGGLLGMALDPDFSKNRTAYVYHTYEKDGALWNRIIAIKEEKESWKEQRVLLDKIPGATIHNGGRIEIGPDGLLYVTAGDAAVPENAQKLSSLSGKILRMKLDGKPADGNVKEYIYSYGHRNPQGLVFVDQTLYATEHGQNGHDEINRIEQKNYGWPLIEGTEKQQGLVTPWYEVGEKSIAPSGVAEQNGKLYFGTLVGQSLRSIETESSKVEQIVTDRGRIRDVMTDGKELYYVTNNTDGRGNSSDEDDVLVRLKP,not soluble
15,MGSDKIHHHHHHMIPEKRIIRRIQSGGCAIHCQDCSISQLCIPFTLNEHELDQLDNIIERKKPIQKGQTLFKAGDELKSLYAIRSGTIKSYTITEQGDEQITGFHLAGDLVGFDAIGSGHHPSFAQALETSMVCEIPFETLDDLSGKMPNLRQQMMRLMSGEIKGDQDMILLLSKKNAEERLAAFIYNLSRRFAQRGFSPREFRLTMTRGDIGNYLGLTVETISRLLGRFQKSGMLAVKGKYITIENNDALAQLAGHTRNVA,not soluble
16,MGSDKIHHHHHHMIRISNKIKTLLAMLSFVQVTSGCDATVQDIIIDTDPGVEIGNNDYYTWCKETLSVIDKDLKISGTHSYYENQDRSQVSFIWGNIFLLYTYTEGISLSKSEWSDALMNCFLNFDNYWHPNYKGIAGYATLPTSAEKVPDRFYDENGWTAIGLCDAYLATQNNSYLEKAKGALAFSLSGEDNVLGGGIYFQETFVSLPVQKNTICSAVTMLSCMKLYEITQDRQYLDAAIRINDWTVENLLDKSDNLLWDAKMVADGSVNTQKWSYNAGFMIRSWLKMYQATKDEKYLSQAKATLASSEAKWYNSINGALNDPGYFAFSIIDSWFDMYDTDKNTVWLTKAFHAINFIHNKLRDGNGRYPEHWGTPTTSNLEKYDLRFSTVAAYMYMRAANYKRILND,not soluble
17,MGSDKIHHHHHHMIRKIIKIDKEKCNGCGACASACHEGAIDIIDGKAELVREHFCDGLGDCLPECPTGAISFEERDAPAYDEEAVKEAQKKIAAKNRAISSHSGCPGSKIMQIRRTETSEPVKATSTADSGSKLQNWPVQIKLAPVNAPYFNGSKLLIAADCTAYAYAAFHQDFIRNKVTLIGCPKLDQVDYSEKLTAIIQNNSIQSVTIVRMEVPCCGGLEIAAKKALQASGKFIPWQVVTISIDGKIME,not soluble
18,MGSDKIHHHHHHMIRLGLTSFSEHDYLTGKKRSTLYEYASHLPLVEMDTAYYGIPPKERVAEWVKAVPENFRFVMKVYSGISCQGEWQTYYASEEEMITAFLESMAPLIESKKLFAFLVQFSGTFGCTKENVAYLQKIRHWFKDLPIAIELRNNSWYQPNFVKQMLQFMKENQFSLVIVDEPQIPTNPVPFYPYVTNPNLVLFRFHGRNAAGWLANDAEWRKKRTLYHYNTQEIADLSEAVLKMSQEAKEVGVIFNNNSGGDAAENALQMQKVLNLSYDDLNPKQLDLF,soluble
19,MGSDKIHHHHHHMIRPSLAHTIISEVRKLLDEDLIVVDPSGTIIASTDKERMGSFHEGALISYNERRRLIITQDDESKLTGVKAGINLPIFFQDQVVGVIGITGDPSKVSAYGELLRKMTELLIKEKYYAEQLEWHARTLEAFVFDWVQQKEWTRSFINQAKMLHIDLTVSRQVIIGYYGQHNRERIQREWWIDVSQTFTRQKDDLLVRWGNDRFVMLLANKAEGKERAVHSIQQIQKYIQNKYRHSLSFGVGQSVCPQELYRSFEQAERALAVAVRTQSIVFEEDLRLDMCLQDVKKQTRVDFVQRTLEPIMKDEDLLETLKTFIARNQSFKETAETLHIHINTLHYRLKKMEDKTGLNPRDFHDLTTLYLGLLFLEDNLKN,not soluble
